# Publication PMC3245936 (Nucleic Acids Research, 2011)
# T1: full-length SpPot1 (Schizosaccharomyces pombe Pot1) (S. pombe, UniProt O13988 1-555)
# T1 sequence (looked up): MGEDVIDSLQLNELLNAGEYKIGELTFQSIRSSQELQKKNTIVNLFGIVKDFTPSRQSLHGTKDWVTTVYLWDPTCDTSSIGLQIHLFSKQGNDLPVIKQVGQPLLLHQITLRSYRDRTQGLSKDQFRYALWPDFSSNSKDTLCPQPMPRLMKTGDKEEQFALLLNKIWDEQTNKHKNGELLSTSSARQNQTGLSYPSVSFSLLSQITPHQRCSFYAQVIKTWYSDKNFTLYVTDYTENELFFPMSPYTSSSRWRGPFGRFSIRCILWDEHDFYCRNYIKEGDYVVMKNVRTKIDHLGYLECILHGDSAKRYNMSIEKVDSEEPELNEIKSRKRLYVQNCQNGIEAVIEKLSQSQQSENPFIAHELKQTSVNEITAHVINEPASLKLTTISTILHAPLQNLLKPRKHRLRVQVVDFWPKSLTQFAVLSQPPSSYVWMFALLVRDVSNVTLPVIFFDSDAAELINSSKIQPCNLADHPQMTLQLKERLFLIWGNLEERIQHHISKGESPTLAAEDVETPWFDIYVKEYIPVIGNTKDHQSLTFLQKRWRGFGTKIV
# T2: SpPot1 (Schizosaccharomyces pombe, UniProt O13988 1-555)
# T2 sequence: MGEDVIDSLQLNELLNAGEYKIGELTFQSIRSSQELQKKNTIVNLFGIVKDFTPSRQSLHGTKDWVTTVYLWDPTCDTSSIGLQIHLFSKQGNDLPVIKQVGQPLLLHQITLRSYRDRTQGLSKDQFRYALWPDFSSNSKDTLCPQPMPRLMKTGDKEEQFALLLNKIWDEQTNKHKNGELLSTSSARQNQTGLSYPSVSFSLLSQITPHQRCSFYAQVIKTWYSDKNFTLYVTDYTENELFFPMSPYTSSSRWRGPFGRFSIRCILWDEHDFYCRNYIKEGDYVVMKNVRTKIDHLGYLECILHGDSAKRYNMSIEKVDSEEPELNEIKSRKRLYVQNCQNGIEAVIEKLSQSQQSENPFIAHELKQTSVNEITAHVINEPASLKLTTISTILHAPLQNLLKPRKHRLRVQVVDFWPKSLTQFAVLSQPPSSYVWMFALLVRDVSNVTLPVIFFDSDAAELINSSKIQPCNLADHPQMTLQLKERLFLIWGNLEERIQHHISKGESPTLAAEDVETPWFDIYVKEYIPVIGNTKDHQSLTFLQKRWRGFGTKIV
# T3: SpPot1;Tpz1-1-234 (Schizosaccharomyces …, UniProt O13988;O14246 1-555;1-234, |)
# T3 sequence 1: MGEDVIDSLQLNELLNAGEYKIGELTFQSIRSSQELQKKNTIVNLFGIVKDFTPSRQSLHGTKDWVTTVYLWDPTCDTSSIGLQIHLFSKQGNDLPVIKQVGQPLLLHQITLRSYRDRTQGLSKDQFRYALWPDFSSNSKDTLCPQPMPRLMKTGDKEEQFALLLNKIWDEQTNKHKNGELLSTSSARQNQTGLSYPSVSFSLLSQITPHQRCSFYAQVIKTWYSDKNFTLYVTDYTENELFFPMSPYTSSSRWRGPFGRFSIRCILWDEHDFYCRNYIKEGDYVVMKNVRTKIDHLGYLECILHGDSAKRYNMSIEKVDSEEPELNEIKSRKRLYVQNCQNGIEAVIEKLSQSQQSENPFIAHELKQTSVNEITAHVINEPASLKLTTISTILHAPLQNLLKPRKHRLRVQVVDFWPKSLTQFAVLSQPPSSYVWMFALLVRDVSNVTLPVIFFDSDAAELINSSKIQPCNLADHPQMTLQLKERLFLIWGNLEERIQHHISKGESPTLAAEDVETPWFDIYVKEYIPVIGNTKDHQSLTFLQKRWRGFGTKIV
# T3 sequence 2: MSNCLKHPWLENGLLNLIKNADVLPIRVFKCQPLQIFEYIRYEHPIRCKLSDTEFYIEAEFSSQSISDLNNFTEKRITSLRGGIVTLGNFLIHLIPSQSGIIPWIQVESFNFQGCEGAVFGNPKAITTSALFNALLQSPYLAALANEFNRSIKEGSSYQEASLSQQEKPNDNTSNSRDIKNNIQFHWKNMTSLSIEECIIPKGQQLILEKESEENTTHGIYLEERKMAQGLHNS
# B1: Tpz1-1–234 (domain or fragment, S. pombe, UniProt O14246 1-234, looked up)
# chain: MSNCLKHPWLENGLLNLIKNADVLPIRVFKCQPLQIFEYIRYEHPIRCKLSDTEFYIEAEFSSQSISDLNNFTEKRITSLRGGIVTLGNFLIHLIPSQSGIIPWIQVESFNFQGCEGAVFGNPKAITTSALFNALLQSPYLAALANEFNRSIKEGSSYQEASLSQQEKPNDNTSNSRDIKNNIQFHWKNMTSLSIEECIIPKGQQLILEKESEENTTHGIYLEERKMAQGLHNS
# How the values were obtained:
# [1] = target: T1, full-length SpPot1 (Schizosaccharomyces …); experiment: native gel or EMSA
# SpPot1 [2] = target: T2, SpPot1; experiment: filter binding
# SpPot1 [3] = target: T2, SpPot1; experiment: size-exclusion chromatography
# SpPot1;Tpz1-1-234 = target: T3, SpPot1;Tpz1-1-234; experiment: filter binding
Binder,binding result [1],Kd (SpPot1 [2]) [nM],binding result (SpPot1 [3]),Kd (SpPot1;Tpz1-1-234) [nM]
B1,binds,–,–,–
"GGUUACGGUUAC (mixed, ribonucleotides (rU) at 3, 4, 9 and 10) [r3r4r9r10]",–,~238,–,–
GGTTACAGGTTAC (ssDNA) [d12dA],–,4.3 ± 0.6,–,–
GGTTAC (ssDNA),–,–,binds,–
"GGTTACGGTTAC (mixed, ribonucleotides at 5 and 11) [r5r11]",–,3.34 ± 0.4,–,0.31 ± 0.05
GGUUACGGUUAC (ssRNA) [r12],–,~324,–,~1000
"GGTTACGGTTAC (mixed, ribonucleotides at 1 and 7) [r1r7]",–,5.1 ± 0.01,–,0.31 ± 0.02
"GGTTACGGTTAC (mixed, ribonucleotides at 2 and 8) [r2r8]",–,3.2 ± 0.5,–,0.19 ± 0.03
"GGTTACAGGGGTTAC (mixed, ribonucleotides (rArGrG) at 7-9) [d12rArGrG]",–,4 ± 0.5,–,–
"GGTTACGGTTAC (mixed, ribonucleotides at 6 and 12) [r6r12]",–,3.2 ± 0.6,–,0.3 ± 0.05
"GGTTACAGGTTAC (mixed, ribonucleotide (rA) at 7) [d12rA]",–,3.4 ± 0.3,–,–
GGTTACAGGGGTTAC (ssDNA) [d12dAdGdG],–,4.9 ± 0.7,–,–
GGTTACGGTTAC (ssDNA) [d12],–,5 ± 1.3,–,0.22 ± 0.03
